From patent US20080182332 come the findings set out here.

Common to all, as to test: cell_activity
In data set [1] the test system is IL-1-FokI C3H F4 HTKIC (pDAB4342) F4 zinc coordinating region HTKIC (engineered). To be noted: pDAB4342, tobacco BY2-380.
Data set [2] deals with IL-1-FokI C2H2 (pDAB4341/pDAB4323) (engineered). To be noted: pDAB4341, tobacco BY2-380; pDAB4323 (non-plant codon FokI) 5.53.
Data set [3] relates to IL-1-FokI C3H F4 HTKRCGGG (pDAB4343) F4 zinc coordinating region HTKRCGGG (engineered). The following applies: pDAB4343, tobacco BY2-380.
Data set [4] has as its system IL-1-FokI C3H F2 HIRTGC (pDAB4346/pDAB4356) F2 zinc coordinating region HIRTGC (engineered). To be noted: pDAB4346, tobacco BY2-380 intrachromosomal recombination; pDAB4356 also active in interchromosomal HR.
Data set [5] has as its system IL-1-FokI C3H F4 HAQRCG (pDAB4344) F4 zinc coordinating region HAQRCG (engineered). To be noted: pDAB4344, tobacco BY2-380.

On to IL-1-L0-FokI site, 4 tandem repeats, for which the activity (GFP expression) in data set [1] stood at 0.25; in data set [2], 6.37; in data set [3], 7.57; in data set [4], 9.5; in data set [5], 4.39.
